# Values of other authors, collected in patent US9486409B2, “Peptide nanoparticles and uses therefor” (Anterios, Inc., priority 2006, dated 2016).
# Conditions: unmodified peptide, prior studies (Katayama et al.)
substance,measurement,value
KTTKS (peptide that may promote extra-cellular matrix production) [unmodified pentapeptide known to promote extra-cellular matrix production],penetration of intact skin,cannot penetrate the intact skin without chemical modification
